Conditions: Bos taurus, pH 8, GdnHCl, CD, cacodylate 50 mM, reversible: yes

## Phospholipase A2 F128A, P00593
25 °C, structure 1BP2
  ddG of mutation (higher = less stable): 0.9 kcal/mol
  denaturant m value: 1.47 kcal/mol/M
  denaturant midpoint (higher = more stable): 5.9 M
  unfolding free energy: 8.6 kcal/mol

## Phospholipase A2 F44I, P00593
30 °C, structure 1BP2
  ddG of mutation (higher = less stable): -2.7 kcal/mol
  denaturant m value: 1.73 kcal/mol/M
  denaturant midpoint (higher = more stable): 7 M
  unfolding free energy: 12.2 kcal/mol

## Phospholipase A2 F128Y, P00593
30 °C, structure 1BP2
  ddG of mutation (higher = less stable): -0.6 kcal/mol
  denaturant m value: 1.53 kcal/mol/M
  denaturant midpoint (higher = more stable): 6.6 M
  unfolding free energy: 10.1 kcal/mol

## Phospholipase A2 F44Y, P00593
30 °C, structure 1BP2
  ddG of mutation (higher = less stable): -1.5 kcal/mol
  denaturant m value: 1.58 kcal/mol/M
  denaturant midpoint (higher = more stable): 7 M
  unfolding free energy: 11 kcal/mol

## Phospholipase A2 F128I, P00593
30 °C, structure 1BP2
  ddG of mutation (higher = less stable): -1.9 kcal/mol
  denaturant m value: 1.65 kcal/mol/M
  denaturant midpoint (higher = more stable): 6.9 M
  unfolding free energy: 11.4 kcal/mol

## Phospholipase A2 wild type, P00593
30 °C
  denaturant m value: 1.47 kcal/mol/M
  denaturant midpoint (higher = more stable): 6.9 M
  unfolding free energy: 9.5 kcal/mol

From FireProtDB (doi:10.1021/bi00158a021)
